Assay: yeast display, Sf9 membrane polyspecificity reagent, FACS + sequencing; frameworks hold sequencing errors
Summary of the method: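 Genes from sorted yeast were amplified by colony PCR, read by MiSeq 2 × 250 sequencing and filtered on CDR length. These cells carried a synthetic nanobody library in Saccharomyces cerevisiae BJ5465 and were sorted by FACS into low and high (top ~1%) gates on anti-HA and streptavidin fluorescence. Polyreactivity is labelled according to the gate of origin.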

Row | Sequence | polyreactivity (PSR sort gate)
1 | KVHLVDSGGRLVQAGGSLRLSCSASGSIFYVYAMGWYRQAPGTERELVATISSSAGSTYYAYSVKGRFTISRDNAKNTVNLQMYSLNPVDTAVYYCYADSFLSWVYRYVYYVSGLWGQGTQVTVSS | low polyreactivity
2 | QVQLVESGGGLVQAGGSLRLSCAASGIIFRYNAMGLYRQAPGKERELVAAISWSGGYTYYADYVKGRFTISRDNAKNTVYFQMNSLKPEDTAVYYFNAVSLSRWGGYWGQGTQVTVSS | high polyreactivity
3 | QVQLVESGGGLVQAGGSLRLSCAASGSTFGSNAMGWYRQAPGKERELVAAIDANGGSTYYADSVKGRFTISRDNAKNTVYLQMNSLKPEDTAVYYCAAAGYWYYYVPNDYWGQGTQVTVSS | low polyreactivity
4 | QVQLVESGGGLVQAGGSLRLSCAASGRTFAVNALGWYRQAPGKERELVAAIRTGSTYYADSVKGRFTISRDNAKNTVYLQMNSLKPEDTAVYFCAAPYRADSYDYWGQGTQVTVSS | high polyreactivity
5 | QVQLVESGGGLVQAGGSLRLSCAASGSIFPEYAMGWYRQAPGKERELVAAITTSGGSTYYADSVKGRFTISRDNAKNTVYLQMNSLKPEDTAVYYCAVEYLVYLDYTYDYWGQGTQVTVSS | low polyreactivity
6 | QVQLVESGGGLVQAGGSLRLSCAASGRIFNDYAMGWYRQAPGKERELVATYADSVKGRFTISRDNAKNTVYLQMNSLKPEDTAVYYCAADFPSFPDFRPEYDYWGQGTQVTVSS | low polyreactivity
7 | QVQLVESGGGLVQAGGSLRLICAASGFTFAYYAMGWYRQATGKERELVAAISSGGGTYYADSVKGRFTISRDNAKNTVYLQMNSLKPEDTAVYYCNARYYFVFGRYNYWGQGTQVTVSS | high polyreactivity
8 | QVQLVESGGGLVQAGGSLRLSCAASGRTFDIYAMGWYRQAPGKERELVADITWSDGTTYYADSVKGRFTISRDNAKNTVYLQMNSLKPEDTAVYYCNAYTVYAYDYWGQGTQVTVSS | low polyreactivity
9 | QVQLVESGGGLVQAGGSLRLSCAASGLIFLYYTMGWYRQAPGKERELVAAISSAGRTNYADSVKGRFTISRDNAKNTVYLQMNSLKPEDTAVYYCNADGGWWARYGYWGQGTQVTVSS | low polyreactivity
10 | QVHLVESGGGLVQAGGSLRLSCAASGSTFYRYAMGWYRQAPGKEREFVAAISTRGGSTHYADSVKGRFTISRDNAKNTVYLQMNSLKPEDTAVSYCNARGYYSVPSNTGIRYYRFDYWGQGTQVTVSS | low polyreactivity
11 | QVQLVESGGGLVQEGGSLRLNCAASGRTFFRNTMGWYRQAPRKDSELFATISSSGGSTYYADSVKGLFTISRDTAKNTVYLQMNSLKPEDTAVYYCAAAPSKWYYGYGYWGQGTQVTVSS | high polyreactivity
12 | QVQLVESGGGLVQAGGSLRLSCAASGFIFGINAMGWYRQAPGKDRELVATITSGGGTNYADSVKGRFTISRDNAKNTVYLQMNSLKPEETAVYYCAAEEDYISFYVSMDYWGQGTQVTVSS | low polyreactivity
13 | QVQLVESGGGLVQAGGSLRLSCAASGSTFAYNAMGWYRQAPGKERELVASISQSGVSTYYADSVKGRFTISRDNAKNTVYLQMNSLKPEDTAVYYCNTEIYYRSYEDDYWGQGSQVTVSS | low polyreactivity
14 | QVQLVESGGGLFQEGGSLRLSCAASGIISKYYAMGWYRQAPGKERELVAAITRSGTSTYYADSVKGRFTISRDNAKNSVYLQMNSLKPEDTAVYYCAAVSGGRTPRYDYWGQGTQVTVSS | high polyreactivity
15 | QVQLVESGGGLVEAGGSHRLTCAASGSTFGWYPIGWYRQAPGTERELVAGINSRGGSTYYADSVKGRFTISRDNAQNTVYLQMNSLKPEDTAVYYCNTVWASRRAHDYWGQGTQVTVSS | high polyreactivity
16 | QVQLVESGGGLVQAGGSLRLSCAASGITFVSYTMGWYRQAPGKERELVAAISTSGGSTYYADSVKGRFTISRDNAKNTVYLQMNSLKPEDTAVYYCAARQVRTIRKYGYWGQGTQVTVSS | high polyreactivity
17 | QVQLVESGGGLVQAGGSLRLSCAASGSTFVVNAMGWYRQAPGKERELVAAITQSGGSTFYADSVKGRFTISRDNAKNTVYFQMNSLKPEDTAVYYWGQGTQVTVSS | low polyreactivity
18 | QVQLVDSGGGLVQAGGSLRLSCSASGYTFALYSMGWYRQAPGKERELVADINIGGASTYYADSVKGRFTISRDNAKNTVYLQMNSLKPEDTAVYYCAKEYYDGYFPTFDYDYWGQGTQVTVSS | low polyreactivity
19 | QVQLVESGGGLVQAGGSLRLSCAASGNIFRPYTMGWYSQAPGKERQLVARISSGGSTNYADSVKGRFTISRDNAKNTVYLQMNSLKPEDTAVYYCAKRYGTVHSRYGYWGQGTQVTVSS | high polyreactivity
20 | QVQLVESGGGLVQAGGSLRLSCAASGSTFDRYTMGWYRQAPGKERELVAAISISGGSTYYADSVKGRFTISRDNAKNTVYLQMNSLKPEDTEVYYCAARLDTVTDYYYWGQGTQVTVSS | low polyreactivity
21 | QVQLVESGGGLVQAGGSLRLSCAASGSIFKPYAMGWYRQAPGKERELVAVISWRGGSTYYADSVKGRFTISRDYAKNTVYFQMNSLKPEDTAVYYCAARRYRYFDGTVPLDYWGQGTQVSVSS | high polyreactivity
22 | QVQIVESCGGLVQAGGSHRLSCAASGSTFVPNAMGWYRQAPGKEREFVAAISRIGGTYYADSVKGRFTISRDNEKNTVYLLMNCLKPEDNAVYYCAAEPSSVGYHVEYDYWGQGTQVTVSS | low polyreactivity

Row | Sequence | polyreactivity (PSR sort gate)
23 | QVQLVESGGWLVQAGGSLRLSCDASGITFYRNAVGWYRPAPGKERELVADITVSGGSTYYADSVKGRFTISRDNAKNTVYLQMNSLKPEDTAVYYCNAGLYQYDVWAYYIRYDYWGQGTQVTVSS | low polyreactivity
24 | QVQLVESGGGLVQAGGSLRISCAASGRICWNYALGWYRQAPGKEMELVASISYRGGSTYYADSVKGRVTISRDYAKNTVYLQMNSLKPEDTAVYYCAARSRQARRTDYGYWGQGTQVTVSS | high polyreactivity
25 | QVQLVESGGGLVQAGGSLRLSCAASGLTFVYYAMGWYRQAPGKERELVATISWDGGSTYYADSVKGRFTISRDNAKNTVYLQLNRLKPEDTAVYYCNKYVFDRYIYETEYDYWGQGTQVTVSS | high polyreactivity
26 | QVQLVESGGGLVQAGGSLRLSCAASGRIFDEYALGWYRQAPGKEREFVAAITYSAGSTYYADSVKGRFTISRDNAKNTVYLQMNSLKPEDTAVYDCAADRYYWWWYTYNYWGQGTQVTVSS | low polyreactivity
27 | QVQLVESGGGLVQAGGSLRLSCAASGRIFVLYAMGWYRQAPGKERELVADITVSGGSTYYADSVKGRFTISRDNAKNTVYLQMNSLKPEDTAVYYCAADQRYWKFDSWGQGTQVTVSS | high polyreactivity
28 | QVQLVESGGGLVQAGGSLRLSCAASGSTFWGNAMGWYRQAPGKERELVAAISTSDTSTYYADSVKGRFTISRDNAKNTVYLQMNSLKPEDTAVYYCAAEWYYGEKYDYWVQGTQVTVSS | low polyreactivity
29 | QVQLVESGGGLVQAGGSLRLSCAASGRIFNHNTMGWYRQAPGKERELVAAISRSGASTYYADSVKGRFTISRDNAKNTVYLQMNSLKPEDTAVYYCNAATYADGITIYDYWGQGTQVTVSS | low polyreactivity
30 | QVQLVESGGGLVQAGGSLRLSCAASGRIFRYYVMGWNRQAPGKERELVATITSGGSTNYADSVKGRFTISRDNAKNTVYLQMNSLKPEDTAVYYCAAEKVSGQGEMDYWGQGTQVTVSS | low polyreactivity
31 | QVQLVESGGGLVQAGGSLRLSCAASGRTFGTKTMGWYRQAPGKERELVAGISRSGGRTYYADSVKGRFTISRDNAKNTVYLQMNSLKPEDTAVYYCAAVSYYQPLRRIMDYWGQGTQVTVSS | high polyreactivity
32 | QVQLVESGGGLVQAGGSLRLSCAASGIPLVSYARGWYRPAPGKVRELVAAISTSGGRTRYADSVKGRFTISRDHAKNTVYIQMNSLKPEDTAVYYCAAELVEPRYNHLPGDGNYWGQGTQVTGSS | high polyreactivity
33 | QVQLVESGGGLVQAGGSLRLSCAASGSIFGIYAMGWYRQAPGKERELVATITGRGGSTYYADSVKGRFTISRDNAKNTVYLQMNSLKPEDTAVYYCNAGGRSARYFWGGYWGQGTQVTVSS | high polyreactivity
34 | QVQLVESGGVLVQAGGSLRLSCAASGRTFHDYAMGWYRQAPGKERELVASISSGGSTYYADSVKGRFTISRDNAKNTDYLQMNSLKPEDTAVYYCAAYYYYTLYYRYDYWGQGTQVNVSS | low polyreactivity
35 | QVQLVESGGGLVQAGGSLRLSCAASGFIFPDNVMGWYRQAPGKERELVAAISRSGGSTYYADSVKGRFTISRDNAKNTVYLQMNSLKPEDTAVYYCAVKFVRYRQGIVLYDYWGQGTQVTVSS | high polyreactivity
36 | QVQLVESGGGLVQAGGSLRLSCAASGITFGGYALGWYRQAPGKEREFVAGISSSGRSTYYADSVKGRFTISRDNAKNTVYLQMYSLKPEDTAVYYCAVYRVRKVYVLRGPFYYWGQGTQVTVSS | high polyreactivity
37 | QVQLVESGGGLVQAGGSLRLSCAASGIIFYRYAMGWYRQAPGKERELVARITSSTGSTYYADSVKGRFTISRDNAKNTVYLQMNSLKPEDTAVYYCNARRQRNKSYNYWGQGTQVTVSS | high polyreactivity
38 | QVQLVESGGGLVQAGGSLRLSCAASGFIFSNYAMGWYRQAPGKERELVAAISWSGGNTYYADSVKGRFTISRDNAKNTFYLQMNSLKPEDTAVYYCNRVKAYYRWFLPRYQYNYWGQGTQVTVSS | high polyreactivity
39 | QVQLVESVGGLVQAGGSLRLICAASGSIFYPNAMGWYRQAPGKERELVAAISYSGTSTNYADSVKGRFTISRDNAKNTVYLQMNSLKPEDTAVYYCAARGFPHRRHSLYDYWGQGTQVTVSS | low polyreactivity
40 | QVQLVESGGGLVQAGGSLRLSCAASGSTYYIYAMGWYRQAPGKEREMVAAISDNGGTTYYADSVKGRFTISRDNAKNTVYLQMNSLKPEDTAVYYCNAEGWWYWYYGSYDYWGQGTQVTVSS | high polyreactivity
41 | QVQLEESGGGLFQAGGSLRLSCAASGSTFADNAMGWYRQATGKEAEFVAGISTNGGSTYYADSVKGRFTISRDNAKNTVYLQMNSLKPEDTAVYYCNADSIDPFLYDYWGQGTQVTVSS | low polyreactivity
42 | QVQLVESGVGLVQAGGSLRLSCAPSGRIFIYYAMGWYRQAPGKERELVATITASGDSTYYADSVKGRFTISRDNAKNTVYFQMNSLKPEDTAVYYCAADDGDYYEVDYWGQGTQVTVSS | low polyreactivity
43 | QVQLVESGGGLVQAGGSLRLSCAASGRIFYSYAMGWYRQAPGKERELVAAIDESDGSTYYADSVKGRFTISRDNAKNTVYLQMNSLKPEDTAVYYCAADSLLVLFDYWGQGTQVTVSS | low polyreactivity

Source: the nanobody polyreactivity screen of Harvey et al. (2022)
